Measured values reported in patent US20250019454A1 (BIOCYTOGEN PHARMACEUTICALS BEIJING, published 2025).

Experiments:
[1] = target: T1, dog (Canine) TNFR2 (on transfected CHO cells) (dog); assay: flow cytometry on transfected CHO cells
T1 construct: also called dTNFR2
T1 chain: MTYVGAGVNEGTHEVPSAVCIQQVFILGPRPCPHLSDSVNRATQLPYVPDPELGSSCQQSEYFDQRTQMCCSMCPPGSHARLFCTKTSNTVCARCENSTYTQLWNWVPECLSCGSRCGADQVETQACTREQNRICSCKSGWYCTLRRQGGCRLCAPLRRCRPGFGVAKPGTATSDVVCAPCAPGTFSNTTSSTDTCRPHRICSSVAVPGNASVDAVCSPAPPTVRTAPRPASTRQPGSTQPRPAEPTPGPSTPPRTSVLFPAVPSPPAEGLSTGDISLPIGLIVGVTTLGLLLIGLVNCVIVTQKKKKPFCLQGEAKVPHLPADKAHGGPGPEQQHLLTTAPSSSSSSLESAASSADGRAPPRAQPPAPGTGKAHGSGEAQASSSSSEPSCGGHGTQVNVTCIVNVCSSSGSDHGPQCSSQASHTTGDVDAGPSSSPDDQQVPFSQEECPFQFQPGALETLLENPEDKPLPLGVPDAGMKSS
Description: 30 μl CHO cells (1×10⁵ cells) were added to each well. 30 μl purified anti-TNFR2 antibodies (10 μg/mL) (as listed in Table 4) were added to each well and were incubated at 4° C. for 30 minutes.
After two washes with PBS (1600 rmp, 6 min), 50 μl of Alexa Fluor labeled anti-human IgG Fc antibody […] was added into each well 1:500 dilution, incubated at 4° C. for 15 minutes, followed by a PBS wash (1200 rmp, 5 min). The signals for AF647 were detected by flow cytometry.

[2] = target: T2, ΔCRD1-TNFR2 protein (with CRD1 deletion), on CHO-S cells (human, UniProt P20333 23-461); assay: FACS on CHO-S cells with ΔCRD1-TNFR2, AF647 anti-human IgG Fc secondary
T2 construct: also called CHO-SΔCRD1-TNFR2
T2 sequence: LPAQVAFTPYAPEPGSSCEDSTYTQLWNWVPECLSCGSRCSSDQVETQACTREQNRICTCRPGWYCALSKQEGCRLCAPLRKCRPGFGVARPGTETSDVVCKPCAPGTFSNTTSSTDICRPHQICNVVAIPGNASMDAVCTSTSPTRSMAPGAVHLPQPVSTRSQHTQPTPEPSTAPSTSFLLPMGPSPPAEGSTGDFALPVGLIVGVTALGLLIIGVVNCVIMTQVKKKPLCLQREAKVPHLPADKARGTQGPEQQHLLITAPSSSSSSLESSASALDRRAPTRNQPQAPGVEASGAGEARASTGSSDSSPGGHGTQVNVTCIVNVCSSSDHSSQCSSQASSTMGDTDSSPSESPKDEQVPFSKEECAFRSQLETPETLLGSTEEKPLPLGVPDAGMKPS
Description: (§1) TNFR2 has four cysteine rich domains (CRD). In another experiment, FACS was used to detect the binding of anti-hTNFR2 antibodies to TNFR2 proteins with different structural domains. Secondary antibody (Alexa Fluor® 647 AffiniPure F(ab′) 2 Fragment Goat Anti-Human IgG, Fcγ fragment specific, Jackson ImmunoResearch Laboratories, Inc., Cat #: 151524) was used. The fluorescence-labeled secondary antibody can attach to the Fc region of the anti-hTNFR2 antibodies so that the anti-hTNFR2 antibodies that are bound to the ΔCRD cells can be detected by FACS. Specifically, ΔCRD1-TNFR2 protein (with CRD1 deleteion), ΔCRD2-TNFR2 protein (with CRD2 deleteion), ΔCRD3-TNFR2 protein (with CRD3 deleteion) or ΔCRD4-TNFR2 protein (with CRD4 deleteion) were expressed in CHO-S cells respectively, and then the binding between the cells and different anti-hTNFR2 antibodies was detected.

[3] = target: T3, ΔCRD2-TNFR2 protein (with CRD2 deletion), on CHO-S cells (human, UniProt P20333 23-461); assay: FACS on CHO-S cells with ΔCRD2-TNFR2, AF647 anti-human IgG Fc secondary
T3 construct: also called CHO-SΔCRD2-TNFR2
T3 sequence: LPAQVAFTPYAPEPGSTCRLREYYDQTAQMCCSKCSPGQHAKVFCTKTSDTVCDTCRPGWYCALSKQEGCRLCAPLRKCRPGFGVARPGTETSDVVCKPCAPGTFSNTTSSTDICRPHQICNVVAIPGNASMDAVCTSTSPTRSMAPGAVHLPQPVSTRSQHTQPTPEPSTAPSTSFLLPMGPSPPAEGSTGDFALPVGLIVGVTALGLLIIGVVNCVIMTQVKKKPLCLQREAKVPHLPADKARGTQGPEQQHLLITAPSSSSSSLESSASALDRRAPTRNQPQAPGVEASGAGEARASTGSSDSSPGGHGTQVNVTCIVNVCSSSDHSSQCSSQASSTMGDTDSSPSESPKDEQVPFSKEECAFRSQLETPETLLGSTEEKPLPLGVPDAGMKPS
Description: as §1

[4] = target: T4, human TNFR2 (expressed on cells) (human, UniProt P20333 23-461); assay: flow cytometry competition, CHO cells with human TNFR2, antibody 0.039 µg/mL, Biotin-hTNFα 0.5 µg/mL
T4 construct: also called hTNFR2; human TNF Receptor 2
T4 sequence: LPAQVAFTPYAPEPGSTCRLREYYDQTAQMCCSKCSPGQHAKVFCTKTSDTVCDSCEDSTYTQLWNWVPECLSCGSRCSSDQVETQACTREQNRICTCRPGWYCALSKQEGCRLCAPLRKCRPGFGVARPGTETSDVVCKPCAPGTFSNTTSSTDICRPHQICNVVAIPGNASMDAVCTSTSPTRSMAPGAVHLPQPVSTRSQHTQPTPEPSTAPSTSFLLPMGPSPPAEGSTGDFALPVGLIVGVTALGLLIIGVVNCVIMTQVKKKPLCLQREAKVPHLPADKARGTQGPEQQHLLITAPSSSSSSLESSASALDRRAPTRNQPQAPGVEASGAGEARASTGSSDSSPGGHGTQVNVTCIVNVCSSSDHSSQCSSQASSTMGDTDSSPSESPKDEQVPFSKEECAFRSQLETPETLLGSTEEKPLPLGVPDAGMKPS
Description: (§2) 30 μl of Biotin-hTNFα (Acro Biosystems, Cat #: TNA-H82E1) was added to each well (with a final concentration of 0.5 μg/mL in each well). The cells with Biotin-hTNFα and the antibodies were incubated at 4° C. for 30 minutes.
(§3) The signals for AF647 and PE were determined by flow cytometry (Thermo Attune NX).

[5] = target: T4, human TNFR2 (expressed on cells); assay: flow cytometry competition, CHO cells with human TNFR2, antibody 0.625 µg/mL, Biotin-hTNFα 0.5 µg/mL
Description: as §2, §3

B1: BC-1C3-IgG1 (antibody, V domains shown)
VH: QVQLVESGGGVVHPGKSLRLSCAASGFTFNIYGMHWVRQAPGKGLEWVALISYDGNDKYFADSVKGRFTISRDNSKNTLYLQMNSLRAEDTAVYYCAKAVDTAVVTFFDYWGQGTLVTVSS
VL: EIVMTQSPVTLSVSPGERATLSCRASQSVSSNLAWYQQKPGQAPRLLIYSASTRATGIPARFSGSGSGTEFTLTISSLQSEDLAVYYCQQYSNWPFTFGPGTKVDIK
notes: Human VH/VL joined to the human IgG1 subtype
B1 was tested, and the binding result [1] was “no binding (tested: 10 µg/mL)”, the “positive rate of binding (% of cells)” value [2] was 72.6% and the “positive rate of binding (% of cells)” value [3] was 80.3%. The “percentage of tested cells that had Streptavidin signals” value (“percentage” below) [4] was 77% and the “percentage” value [5] was 77.3%.

B2: BC-1B6-IgG1 (antibody, V domains shown)
VH: QVQLVESGGGVVQPGRSLRLSCAASGFTFSNFGMHWVRQAPGKGLEWVAVIWYEGSDKYYADSVKGRFTISRDNSKNTLYLQMNSLRAEDTAVYYCARDSSWGFLLYGMDVWGQGTTVTVSS
VL: DVVMTQSPLSLPVTLGQPASISCRSSRSLEYSDGNTYLNWFQQRPGQSPRRLIYKVSNRDSGVPDRFSGSGSGTAFTLKISGVEAEDVGVYYCMQGTHWPPTFGGGTKVEIK
notes: as for B1
With B2 the binding result [1] was “no binding (tested: 10 µg/mL)”, the “percentage” value [4] was 78.9% and the “percentage” value [5] was 80.4%.

B3: BC-1A8-IgG1 (antibody, V domains shown)
VH: QVQLQQSGPGLVKPSQTLSLTCAISGDSVSSNSAAWNWIRQSPSRGLEWLGRTYYRSKWYNDYALSVKSRITINPETSKNQFSLQLNSVTPEDTAVYYCAREDGVGGTKDYFDYWGQGTLVTVSS
VL: DIQMTQSPSSLSASVGDRVTITCQASQDIDNYLNWYQQKPGKAPKLLIYDVSNLEIGVPSRFSGSGSGTDFTFTISSLQPEDIATYYCQQYDNLPLTFGQGTRLEIK
notes: Fully human VH/VL joined to the human IgG1 subtype, kappa light chain (RenMab mice)
In the case of B3, the binding result [1] is reported as “no binding (tested: 10 µg/mL)”, the “positive rate of binding (% of cells)” value [2] is reported as 64.6% and the “positive rate of binding (% of cells)” value [3] is reported as 71.2%. For the same binder, the “percentage” value [4] was 62.8% and the “percentage” value [5] was 58.6%.

B4: BC-1F4-IgG1 (antibody, V domains shown)
VH: QVQLQQSGPGLVKPSQTLSLTCAISGDSVSSDSSAWNWIRQSPSRGLEWLGRTYYRSKWYNDYTVSVKSRITINPDTSKNQFSLQLNSVTPEDTAVYYCAREDGVGGTKDYFDYWGQGTLVTVSS
VL: DIQMTQSPSSLSASVGDRVTITCQASQDISNYLNWYQQKPGKAPKLLIYDASNLETGVPSRFSGSGSGTDFTFTINSLQPEDFATYFCQQYDNLPITFGQGTRLEIK
notes: as for B1
In the case of B4, the binding result [1] is reported as “no binding (tested: 10 µg/mL)”, the “positive rate of binding (% of cells)” value [2] is reported as 53.1% and the “positive rate of binding (% of cells)” value [3] is reported as 59.1%. For the same binder, the “percentage” value [4] was 84.6% and the “percentage” value [5] was 61.9%.

B5: BC-1F10-IgG1 (antibody, V domains shown)
VH: QVQLQQWGAGLLKPSETLSLICAVYDGSFSGDYWSWIRQPPGKGLEWIGEINHSGSTNYNPSLKSRVTISVDTSKNQFSLKLSSVTAADTAVYYCARGHWNYDYYYGMDVWGQGTTVTVSS
VL: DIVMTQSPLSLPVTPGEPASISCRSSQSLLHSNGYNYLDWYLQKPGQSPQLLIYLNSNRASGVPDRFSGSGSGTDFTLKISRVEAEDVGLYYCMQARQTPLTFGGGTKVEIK
notes: as for B1
B5 was tested, and the binding result [1] was “no binding (tested: 10 µg/mL)”, the “positive rate of binding (% of cells)” value [2] was 55.3% and the “positive rate of binding (% of cells)” value [3] was 65.7%. The “percentage” value [4] was 59% and the “percentage” value [5] was 60.2%.
